Measured values: PMC9391438, “Structures of L-BC virus and its open particle provide insight into Totivirus capsid assembly” (Communications Biology, 2022)

Biological target: the molecule itself
Experiment: cryo-EM structure; L-BC particles purified from yeast, vitrified in 20 mM Tris-HCl pH 7.5, 50 mM KCl, 10 mM MgCl2; empty particle 2.9 Å and virion 3.7 Å (icosahedral symmetry), open particle 10 Å (C5) and 12 Å (C1)

B1: L-BC virus capsid protein (Saccharomyces cerevisiae virus L-BCLa) (natural protein)
chain: MSSLLNSLLPEYFKPKTNLNINSSRVQYGFNARIDMQYEDDSGTRKGSRPNAFMSNTVAFIGNYEGIIVDDIPILDGLRADIFDTHGDLDMGLVEDALSKSTMIRRNVPTYTAYASELLYKRNLTSLFYNMLRLYYIKKWGSIKYEKDAIFYDNGHACLLNRQLFPKSRDASLESSLSLPEAEIAMLDPGLEFPEEDVPAILWHGRVSSRATCILGQACSEFAPLAPFSIAHYSPQLTRKLFVNAPAGIEPSSGRYTHEDVKDAITILVSANQAYTDFEAAYLMLAQTLVSPVPRTAEASAWFINAGMVNMPTLSCANGYYPALTNVNPYHRLDTWKDTLNHWVAYPDMLFYHSVAMIESCYVELGNVARVSDSDAINKYTFTELSVQGRPVMNRGIIVDLTLVAMRTGREISLPYPVSCGLTRTDALLQGTEIHVPVVVKDIDMPQYYNAIDKDVIEGQETVIKVKQLPPAMYPIYTYGINTTEFYSDHFEDQVQVEMAPIDNGKAVFNDARKFSKFMSIMRMMGNDVTATDLVTGRKVSNWADNSSGRFLYTDVKYEGQTAFLVDMDTVKARDHCWVSIVDPNGTMNLSYKMTNFRAAMFSRNKPLYMTGGSVRTIATGNYRDAAERLRAMDETLRLKPFKITEKLDFRVAAYAIPSLSGSNMPSLHHQEQLQISEVDAEPINPIGEDELPPDIE
notes: Capsid protein of Saccharomyces cerevisiae virus L-BCLa (L-BC), as found in virus particles from yeast; genome NC_001641.1; the model has 1316 resolved residues for the two copies (A and B) of the icosahedral asymmetric unit; The same chain takes two conformations (A and B) in the capsid; no density for it was resolved; also called A subunit; B subunit
With B1 the “stoichiometry N” value was 120.
